Test results published in publication PMC4434323.

Legend:
[1] = target: T1, elt-7 (C18G1.2) (Caenorhabditis elegans) (UniProt O61924)
T1 sequence: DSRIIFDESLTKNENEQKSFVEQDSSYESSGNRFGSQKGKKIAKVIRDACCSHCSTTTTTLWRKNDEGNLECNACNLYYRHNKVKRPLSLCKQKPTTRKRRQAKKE

[2] = target: T2, elt-6 (F52C12.5) (Caenorhabditis elegans) (UniProt G5EGN3)
T2 sequence: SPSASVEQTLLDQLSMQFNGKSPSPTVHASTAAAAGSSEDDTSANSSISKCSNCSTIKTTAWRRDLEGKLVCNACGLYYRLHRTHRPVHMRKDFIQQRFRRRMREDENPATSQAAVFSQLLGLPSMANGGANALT

[3] = system: T3, slr-2 (Y59A8B.13) (Caenorhabditis elegans)
T3 sequence: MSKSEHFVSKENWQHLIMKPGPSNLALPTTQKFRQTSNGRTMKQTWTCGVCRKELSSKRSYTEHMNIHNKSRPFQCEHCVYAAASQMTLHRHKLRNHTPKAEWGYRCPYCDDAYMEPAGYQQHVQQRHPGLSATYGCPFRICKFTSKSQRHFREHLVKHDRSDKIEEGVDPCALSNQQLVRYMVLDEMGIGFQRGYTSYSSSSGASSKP

[4] = target: T4, nhr-70 (Y51A2D.17) (Caenorhabditis elegans) (UniProt G5EEL3)
T4 sequence: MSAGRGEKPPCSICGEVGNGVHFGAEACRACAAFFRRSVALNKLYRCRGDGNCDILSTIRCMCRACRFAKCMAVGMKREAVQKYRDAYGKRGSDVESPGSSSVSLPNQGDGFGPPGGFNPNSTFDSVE

[5] = target: T5, nhr-66 (T09A12.4) (Caenorhabditis elegans) (UniProt H2KYJ8)
T5 sequence: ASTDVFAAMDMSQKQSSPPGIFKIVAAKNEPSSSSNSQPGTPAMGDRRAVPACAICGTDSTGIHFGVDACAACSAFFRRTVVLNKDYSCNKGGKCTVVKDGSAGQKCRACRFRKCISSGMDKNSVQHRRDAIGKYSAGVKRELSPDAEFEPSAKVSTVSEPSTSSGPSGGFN

[6] = target: T6, odr-7 (T18D3.2) (Caenorhabditis elegans) (UniProt P41933)
T6 sequence: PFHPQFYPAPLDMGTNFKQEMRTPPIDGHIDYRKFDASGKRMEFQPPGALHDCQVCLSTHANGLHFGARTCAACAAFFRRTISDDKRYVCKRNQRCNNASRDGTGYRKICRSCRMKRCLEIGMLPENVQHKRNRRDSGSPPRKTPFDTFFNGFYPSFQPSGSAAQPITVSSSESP

[7] = target: T7, let-381 (F26B1.7) (Caenorhabditis elegans) (UniProt P91278)
T7 sequence: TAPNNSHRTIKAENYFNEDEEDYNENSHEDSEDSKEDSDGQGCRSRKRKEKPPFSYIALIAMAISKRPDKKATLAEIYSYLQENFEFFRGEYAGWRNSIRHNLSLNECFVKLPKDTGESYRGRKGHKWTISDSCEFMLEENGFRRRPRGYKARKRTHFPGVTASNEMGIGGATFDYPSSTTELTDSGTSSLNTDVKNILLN

[8] = target: T8, mnm-2 (C10A4.8) (Caenorhabditis elegans) (UniProt Q17895)
T8 sequence: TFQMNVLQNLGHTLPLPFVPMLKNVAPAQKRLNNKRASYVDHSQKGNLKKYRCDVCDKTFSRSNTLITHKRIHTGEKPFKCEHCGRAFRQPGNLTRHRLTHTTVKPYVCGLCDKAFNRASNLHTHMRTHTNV

[9] = target: T9, nhr-5 (Y73F8A.21) (Caenorhabditis elegans) (UniProt Q9NA51)
T9 sequence: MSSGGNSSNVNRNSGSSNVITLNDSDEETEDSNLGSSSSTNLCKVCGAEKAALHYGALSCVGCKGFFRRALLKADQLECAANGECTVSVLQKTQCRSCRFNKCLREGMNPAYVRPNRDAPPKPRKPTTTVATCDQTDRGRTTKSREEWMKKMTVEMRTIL

[10] = target: T10, daf-12 (F11A1.3) (Caenorhabditis elegans) (UniProt G5EFF5)
T10 sequence: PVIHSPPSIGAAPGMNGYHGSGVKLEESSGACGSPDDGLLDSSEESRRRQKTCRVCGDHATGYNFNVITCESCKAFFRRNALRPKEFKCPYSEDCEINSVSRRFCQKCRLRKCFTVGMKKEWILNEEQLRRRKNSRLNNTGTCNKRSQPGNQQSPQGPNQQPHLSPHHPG

[11] = target: T11, fkh-9 (K03C7.2) (Caenorhabditis elegans) (UniProt Q21187)
T11 sequence: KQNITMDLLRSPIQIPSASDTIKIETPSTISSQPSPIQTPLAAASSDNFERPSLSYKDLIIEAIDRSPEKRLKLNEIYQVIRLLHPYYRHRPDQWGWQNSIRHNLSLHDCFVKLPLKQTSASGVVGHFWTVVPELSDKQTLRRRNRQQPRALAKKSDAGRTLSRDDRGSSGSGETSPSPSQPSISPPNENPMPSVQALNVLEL

[12] = target: T12, daf-19 (F33H1.1) (Caenorhabditis elegans) (UniProt Q09555)
T12 sequence: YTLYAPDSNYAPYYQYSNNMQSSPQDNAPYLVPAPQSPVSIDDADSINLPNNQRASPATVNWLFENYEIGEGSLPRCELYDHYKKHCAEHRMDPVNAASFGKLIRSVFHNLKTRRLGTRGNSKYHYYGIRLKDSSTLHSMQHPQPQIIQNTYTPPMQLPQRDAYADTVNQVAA

GCTGATAA (double strand) [8-mer GCTGATAA]
binding signal (PBM E-score (-0.5 to 0.5)) [1]: 0.471 | binding signal (PBM E-score (-0.5 to 0.5)) [2]: 0.493

ACTACAAA (double strand) [8-mer ACTACAAA]
binding signal (PBM E-score (-0.5 to 0.5)) [3]: 0.452 | binding signal (PBM E-score (-0.5 to 0.5)) [4]: 0.493 | binding signal (PBM E-score (-0.5 to 0.5)) [5]: 0.492 | binding signal (PBM E-score (-0.5 to 0.5)) [6]: 0.491

ATAAACAT (double strand) [8-mer ATAAACAT]
binding signal (PBM E-score (-0.5 to 0.5)) [7]: 0.473

ATTGTTTA (double strand) [8-mer ATTGTTTA]
binding signal (PBM E-score (-0.5 to 0.5)) [7]: 0.467

GCGCATCA (double strand) [8-mer GCGCATCA]
binding signal (PBM E-score (-0.5 to 0.5)) [8]: 0.47

GTAAACAC (double strand) [8-mer GTAAACAC]
binding signal (PBM E-score (-0.5 to 0.5)) [7]: 0.452

TATGATAA (double strand) [8-mer TATGATAA]
binding signal (PBM E-score (-0.5 to 0.5)) [1]: 0.457

ATGTTTAC (double strand) [8-mer ATGTTTAC]
binding signal (PBM E-score (-0.5 to 0.5)) [7]: 0.455

GCGGATCC (double strand) [8-mer GCGGATCC]
binding signal (PBM E-score (-0.5 to 0.5)) [8]: 0.472

AAGTACAC (double strand) [8-mer AAGTACAC]
binding signal (PBM E-score (-0.5 to 0.5)) [9]: 0.457 | binding signal (PBM E-score (-0.5 to 0.5)) [10]: 0.492

GCACATCC (double strand) [8-mer GCACATCC]
binding signal (PBM E-score (-0.5 to 0.5)) [8]: 0.46

AGTAAACA (double strand) [8-mer AGTAAACA]
binding signal (PBM E-score (-0.5 to 0.5)) [7]: 0.457 | binding signal (PBM E-score (-0.5 to 0.5)) [11]: 0.485

ATAGCAAC (double strand) [8-mer ATAGCAAC]
binding signal (PBM E-score (-0.5 to 0.5)) [12]: 0.489

ATGATAAG (double strand) [8-mer ATGATAAG]
binding signal (PBM E-score (-0.5 to 0.5)) [1]: 0.457 | binding signal (PBM E-score (-0.5 to 0.5)) [2]: 0.491

GTAACTAA (double strand) [8-mer GTAACTAA]
binding signal (PBM E-score (-0.5 to 0.5)) [12]: 0.465

ATAGTACA (double strand) [8-mer ATAGTACA]
binding signal (PBM E-score (-0.5 to 0.5)) [9]: 0.452

GACTACAA (double strand) [8-mer GACTACAA]
binding signal (PBM E-score (-0.5 to 0.5)) [3]: 0.468 | binding signal (PBM E-score (-0.5 to 0.5)) [4]: 0.495 | binding signal (PBM E-score (-0.5 to 0.5)) [5]: 0.488 | binding signal (PBM E-score (-0.5 to 0.5)) [6]: 0.476

AGCGCATC (double strand) [8-mer AGCGCATC]
binding signal (PBM E-score (-0.5 to 0.5)) [8]: 0.459

AAAGTACG (double strand) [8-mer AAAGTACG]
binding signal (PBM E-score (-0.5 to 0.5)) [9]: 0.462

TATAAACA (double strand) [8-mer TATAAACA]
binding signal (PBM E-score (-0.5 to 0.5)) [7]: 0.483

CCTTATCA (double strand) [8-mer CCTTATCA]
binding signal (PBM E-score (-0.5 to 0.5)) [1]: 0.469 | binding signal (PBM E-score (-0.5 to 0.5)) [2]: 0.496

GAAGTGCA (double strand) [8-mer GAAGTGCA]
binding signal (PBM E-score (-0.5 to 0.5)) [8]: 0.459 | binding signal (PBM E-score (-0.5 to 0.5)) [10]: 0.491

GGTTGCTA (double strand) [8-mer GGTTGCTA]
binding signal (PBM E-score (-0.5 to 0.5)) [12]: 0.493

CTGATAAC (double strand) [8-mer CTGATAAC]
binding signal (PBM E-score (-0.5 to 0.5)) [1]: 0.467 | binding signal (PBM E-score (-0.5 to 0.5)) [2]: 0.493

GATGTGCA (double strand) [8-mer GATGTGCA]
binding signal (PBM E-score (-0.5 to 0.5)) [8]: 0.457

ACTGATAA (double strand) [8-mer ACTGATAA]
binding signal (PBM E-score (-0.5 to 0.5)) [1]: 0.476 | binding signal (PBM E-score (-0.5 to 0.5)) [2]: 0.496

CTGATAAG (double strand) [8-mer CTGATAAG]
binding signal (PBM E-score (-0.5 to 0.5)) [1]: 0.472 | binding signal (PBM E-score (-0.5 to 0.5)) [2]: 0.496

GATGCGCC (double strand) [8-mer GATGCGCC]
binding signal (PBM E-score (-0.5 to 0.5)) [8]: 0.464
